In publication PMC9278407, “Structure and regulation of the nuclear exosome targeting complex guides RNA substrates to the exosome” (Molecular Cell, 2022):
Blank lines part the entries; values can stand above or below the binder they belong to.

Columns and labels:
MTR4 (full length) [1] = biological target: T1, MTR4 (full length) (human, UniProt P42285 1-1042); test: cryo-EM structure; NEXT^L at 2 μM with equimolar 5'-hairpin-U60 RNA and 2 mM AMPPNP, 20 mM HEPES-NaOH pH 7.5, 50 mM NaCl, 2 mM DTT, 2 mM MgCl2; cross-linked with 0.03% glutaraldehyde; details: both partners purified
T1 construct: MTR4, human, full length; also called MTR4A; MTR4B; not shown: His6, N-terminal, cleaved; GST, N-terminal, cleaved
T1 sequence (looked up): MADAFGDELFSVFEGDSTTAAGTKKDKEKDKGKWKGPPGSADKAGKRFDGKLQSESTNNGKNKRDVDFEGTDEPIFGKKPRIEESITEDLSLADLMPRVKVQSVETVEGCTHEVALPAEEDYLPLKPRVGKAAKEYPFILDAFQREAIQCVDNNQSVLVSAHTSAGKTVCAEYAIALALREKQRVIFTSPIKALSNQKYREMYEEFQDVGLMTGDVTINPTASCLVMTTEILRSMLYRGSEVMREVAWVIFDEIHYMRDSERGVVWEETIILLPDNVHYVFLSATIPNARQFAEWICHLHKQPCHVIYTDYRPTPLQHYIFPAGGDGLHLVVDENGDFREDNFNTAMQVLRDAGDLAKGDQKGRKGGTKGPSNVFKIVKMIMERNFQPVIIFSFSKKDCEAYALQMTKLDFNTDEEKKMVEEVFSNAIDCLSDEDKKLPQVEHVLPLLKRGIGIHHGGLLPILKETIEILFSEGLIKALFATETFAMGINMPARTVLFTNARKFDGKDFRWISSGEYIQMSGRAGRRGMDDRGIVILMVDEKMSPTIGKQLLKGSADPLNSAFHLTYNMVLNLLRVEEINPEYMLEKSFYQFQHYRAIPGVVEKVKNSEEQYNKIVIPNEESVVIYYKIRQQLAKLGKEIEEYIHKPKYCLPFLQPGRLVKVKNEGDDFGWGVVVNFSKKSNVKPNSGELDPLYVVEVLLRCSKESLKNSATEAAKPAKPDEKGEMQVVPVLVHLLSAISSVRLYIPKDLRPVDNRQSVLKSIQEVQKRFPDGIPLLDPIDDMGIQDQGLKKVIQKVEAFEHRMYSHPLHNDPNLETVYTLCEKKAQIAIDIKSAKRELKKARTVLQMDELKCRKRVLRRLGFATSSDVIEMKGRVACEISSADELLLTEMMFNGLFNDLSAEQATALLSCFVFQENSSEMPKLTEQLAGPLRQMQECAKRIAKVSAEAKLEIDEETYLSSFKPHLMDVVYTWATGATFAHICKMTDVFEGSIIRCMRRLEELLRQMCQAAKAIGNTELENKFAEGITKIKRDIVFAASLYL

MTR4 (full length) [2] = biological target: T1, MTR4 (full length); test: SEC; pre-assembled complexes of full-length MTR4, RBM7(RRM) and N-terminally truncated ZCCHC8 constructs ending at 337; Superdex 200 Increase 3.2/300; 20 mM Hepes-NaOH pH 7.5, 150 mM NaCl, 2 mM DTT; 300 pmol in 30 μL injected; peak fractions on SDS-PAGE; details: both partners purified
eYFP-(GS)3-MTR4(75-1042) [3] = biological target: T2, eYFP-(GS)3-MTR4(75-1042) (human, UniProt P42285 75-1042); test: MST
T2 chain: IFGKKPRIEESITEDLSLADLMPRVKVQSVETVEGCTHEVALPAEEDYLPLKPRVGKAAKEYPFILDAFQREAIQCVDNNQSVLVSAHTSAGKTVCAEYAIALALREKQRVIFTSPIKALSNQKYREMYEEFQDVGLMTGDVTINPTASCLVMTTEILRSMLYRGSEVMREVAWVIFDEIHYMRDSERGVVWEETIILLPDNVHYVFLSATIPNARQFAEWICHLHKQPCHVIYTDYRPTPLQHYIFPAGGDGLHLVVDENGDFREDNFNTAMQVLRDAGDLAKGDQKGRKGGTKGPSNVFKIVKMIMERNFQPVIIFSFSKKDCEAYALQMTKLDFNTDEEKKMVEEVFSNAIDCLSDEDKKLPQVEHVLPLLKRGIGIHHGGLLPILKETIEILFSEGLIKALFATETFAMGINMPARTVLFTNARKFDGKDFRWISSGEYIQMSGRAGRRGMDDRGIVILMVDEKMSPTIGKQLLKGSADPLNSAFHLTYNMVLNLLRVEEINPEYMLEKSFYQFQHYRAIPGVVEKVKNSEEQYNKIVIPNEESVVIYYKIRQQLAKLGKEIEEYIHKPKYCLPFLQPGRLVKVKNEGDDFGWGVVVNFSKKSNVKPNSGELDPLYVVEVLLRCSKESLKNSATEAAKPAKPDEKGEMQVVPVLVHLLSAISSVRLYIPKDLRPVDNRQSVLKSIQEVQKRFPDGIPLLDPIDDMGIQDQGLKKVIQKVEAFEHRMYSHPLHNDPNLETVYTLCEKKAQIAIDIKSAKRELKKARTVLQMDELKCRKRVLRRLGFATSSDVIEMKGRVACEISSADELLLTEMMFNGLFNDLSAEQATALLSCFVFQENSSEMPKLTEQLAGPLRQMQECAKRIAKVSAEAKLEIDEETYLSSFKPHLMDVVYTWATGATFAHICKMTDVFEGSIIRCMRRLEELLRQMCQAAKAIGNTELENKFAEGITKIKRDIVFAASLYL

[4] = biological target: the molecule itself; test: cryo-EM structure; NEXT^S at 15 μM with 1.2 molar excess RNA-U20 and 2 mM AMPPNP, 20 mM HEPES-NaOH pH 7.5, 150 mM NaCl, 2 mM DTT, 2 mM MgCl2; cross-linked with 1 mM BS3
MTR4 (full length) [5] = biological target: T1, MTR4 (full length); test: as above; details: both partners purified
eYFP-(GS)3-MTR4(75-1042) [6] = biological target: T3, eYFP-(GS)3-MTR4(75-1042) (human, UniProt P42285 75-1042); test: MST; eYFP-(GS)3-MTR4(75-1042) fixed at 50 nM, increasing ZCCHC8/RBM7; 50 mM HEPES-NaOH pH 7.5, 150 mM NaCl, 2 mM DTT, 10% glycerol, 0.1% Pluronic F-127; room temperature; triplicates; details: both partners purified
T3 construct: MTR4, human, residues 75-1042, joined to eYFP by a (GS)3 linker; also called eYFP-tagged MTR4; source: E. coli BL21 Star (DE3) pRARE, purified; not shown: eYFP, N-terminal, kept
T3 sequence (looked up): T2 chain

[7] = biological target: the molecule itself; test: SEC; pre-assembled complexes of full-length MTR4, RBM7(RRM) and N-terminally truncated ZCCHC8 constructs ending at 337; Superdex 200 Increase 3.2/300; 20 mM Hepes-NaOH pH 7.5, 150 mM NaCl, 2 mM DTT; 300 pmol in 30 μL injected; peak fractions on SDS-PAGE

binding result (MTR4 (full length) [1]): binds
B1: ZCCHC8 deletion mutant Δ416-506 (natural protein, human)
chain: MAAEVYFGDLELFEPFDHPEESIPKPVHTRFKDDDGDEEDENGVGDAELRERLRQCEETIEQLRAENQELKRKLNILTRPSGILVNDTKLDGPILQILFMNNAISKQYHQEIEEFVSNLVKRFEEQQKNDVEKTSFNLLPQPSSIVLEEDHKVEESCAIKNNKEAFSVVGSVLYFTNFCLDKLGQPLLNENPQLSEGWEIPKYHQVFSHIVSLEGQEIQVKAKRPKPHCFNCGSEEHQMKDCPMPRNAARISEKRKEYMDACGEANNQNFQQRYHAEEVEERFGRFKPGVISEELQDALGVTDKSLPPFIYRMRQLGYPPGWLKEAELENSGLALYDGKDGTDGETEVGEIQQNKSVTYDLSKLVNYPGFNISTPRGIPDEWRIFGSIPMQACQQKDVFANYLTSNFQAPGVKSGSGAVDEDALTLEELEEQQRRIWAALEQAESVNSDSDVPVDTPLTGNSVASSPCPNELDLPVPEGKTSEKQTLDEPEVPEIFTKKSEAGHASSPDSEVTSLCQKEKAELAPVNTEGALLDNGSVVPNCDISNGGSQKLFPADTSPSTATKIHSPIPDMSKFATGITPFEFENMAESTGMYLRIRSLLKNSPRNQQKNKKASE
notes: ZCCHC8, human, deletion mutant lacking residues 416-506 but still including the C-terminal domain; Construct adapted from Puno and Lima (2018); also called ZCCHC8^L; hZCCHC8(Δ416-506); source: E. coli BL21 Star (DE3) pRARE, co-expressed and co-purified with RBM7(1-98); not shown: His6, N-terminal, cleaved; SUMO, N-terminal, cleaved

binding result (MTR4 (full length) [2]): binds
B2: ZCCHC8 (residues 177-337) (domain or fragment, human, UniProt Q6NZY4 177-337, looked up)
chain: NFCLDKLGQPLLNENPQLSEGWEIPKYHQVFSHIVSLEGQEIQVKAKRPKPHCFNCGSEEHQMKDCPMPRNAARISEKRKEYMDACGEANNQNFQQRYHAEEVEERFGRFKPGVISEELQDALGVTDKSLPPFIYRMRQLGYPPGWLKEAELENSGLALYD
notes: source: E. coli BL21 Star (DE3) pRARE, co-expressed and co-purified with RBM7(1-98); not shown: His6, N-terminal, cleaved; GST, N-terminal, cleaved

Kd (eYFP-(GS)3-MTR4(75-1042) [3]): 120 nM
B3: dimeric ZCCHC8(41-337)/RBM7(RRM) (complex)
chain 1: ENGVGDAELRERLRQCEETIEQLRAENQELKRKLNILTRPSGILVNDTKLDGPILQILFMNNAISKQYHQEIEEFVSNLVKRFEEQQKNDVEKTSFNLLPQPSSIVLEEDHKVEESCAIKNNKEAFSVVGSVLYFTNFCLDKLGQPLLNENPQLSEGWEIPKYHQVFSHIVSLEGQEIQVKAKRPKPHCFNCGSEEHQMKDCPMPRNAARISEKRKEYMDACGEANNQNFQQRYHAEEVEERFGRFKPGVISEELQDALGVTDKSLPPFIYRMRQLGYPPGWLKEAELENSGLALYD
chain 2: MGAAAAEADRTLFVGNLETKVTEELLFELFHQAGPVIKVKIPKDKDGKPKQFAFVNFKHEVSVPYAMNLLNGIKLYGRPIKIQFRSGSSHAPQDVSLS

binding result (MTR4 (full length) [5]): binds
B4: ZCCHC8 (residues 41-337) (domain or fragment, human, UniProt Q6NZY4 41-337, looked up)
chain: B3 chain 1
notes: also called ZCCHC8^S; not shown: His6, N-terminal, cleaved; GST, N-terminal, cleaved
stoichiometry N [4]: 2

Kd (eYFP-(GS)3-MTR4(75-1042) [3]): 540 nM | binding result (eYFP-(GS)3-MTR4(75-1042) [6]): binds
B5: monomeric ZCCHC8(177-337)/RBM7(RRM) (complex, human)
chain 1: B2 chain
chain 2: B3 chain 2
notes: RBM7, human, residues 1-98 with the RRM domain; also called monomeric ZCCHC8-RBM7 unit; source: E. coli BL21 Star (DE3) pRARE, co-expressed and co-purified; not shown: His6, N-terminal, cleaved; GST, N-terminal, cleaved; Z tag or SUMO, N-terminal, cleaved; copies: 1 + 1

binding result (MTR4 (full length) [2]): binds
B6: ZCCHC8 (residues 91-337) (domain or fragment, human, UniProt Q6NZY4 91-337, looked up)
chain: DGPILQILFMNNAISKQYHQEIEEFVSNLVKRFEEQQKNDVEKTSFNLLPQPSSIVLEEDHKVEESCAIKNNKEAFSVVGSVLYFTNFCLDKLGQPLLNENPQLSEGWEIPKYHQVFSHIVSLEGQEIQVKAKRPKPHCFNCGSEEHQMKDCPMPRNAARISEKRKEYMDACGEANNQNFQQRYHAEEVEERFGRFKPGVISEELQDALGVTDKSLPPFIYRMRQLGYPPGWLKEAELENSGLALYD
notes: source: E. coli BL21 Star (DE3) pRARE, co-expressed and co-purified with RBM7(1-98); not shown: His6, N-terminal, cleaved; GST or SUMO, N-terminal, cleaved
binding result [7]: binds
